Measurements: patent US10844127

Experiments:
[1] = biological target: HER3 ECD F409A (human) (UniProt P21860); test: FACS, HER3 ECD alanine mutants on cells
[2] = biological target: HER3 ECD R426A (human) (UniProt P21860); test: FACS, HER3 ECD alanine mutants on cells
HER3 ECD R426A (human), sequence (P21860 20-643 R426A): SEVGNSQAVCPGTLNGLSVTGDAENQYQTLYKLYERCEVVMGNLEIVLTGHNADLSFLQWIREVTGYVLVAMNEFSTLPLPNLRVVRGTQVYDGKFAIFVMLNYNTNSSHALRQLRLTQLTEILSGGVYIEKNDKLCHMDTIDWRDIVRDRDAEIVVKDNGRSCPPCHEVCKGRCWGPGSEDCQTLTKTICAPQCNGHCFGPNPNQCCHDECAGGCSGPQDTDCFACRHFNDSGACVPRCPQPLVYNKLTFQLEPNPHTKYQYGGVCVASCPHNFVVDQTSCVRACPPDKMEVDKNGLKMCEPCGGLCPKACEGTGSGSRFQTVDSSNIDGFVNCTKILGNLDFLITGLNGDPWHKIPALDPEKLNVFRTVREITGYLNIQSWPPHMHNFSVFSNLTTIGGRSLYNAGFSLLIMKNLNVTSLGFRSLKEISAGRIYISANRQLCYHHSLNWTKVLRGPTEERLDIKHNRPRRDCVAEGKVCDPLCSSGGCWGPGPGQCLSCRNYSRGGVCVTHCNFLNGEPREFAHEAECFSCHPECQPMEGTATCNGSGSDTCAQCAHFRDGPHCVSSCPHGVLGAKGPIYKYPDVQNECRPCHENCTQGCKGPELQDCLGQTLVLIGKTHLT

HER3 ECD F409A (human), sequence (P21860 20-643 F409A): as the sequence (P21860 20-643 R426A) above, with F390A, A407R counted along it

Control mAb binding % of wt binding (% of wt binding) [1]: 79.6
Control mAb binding % of wt binding (% of wt binding) [2]: 93.1
Substance: control mAb 66223 (antibody)
